The values that follow are results of earlier work, collected in article PMC11083953.

One data set deals with CD20 (Homo sapiens) (UniProt P11836).
The target in another data set is CD38 (Homo sapiens) (UniProt P28907).

Sequence of CD20 (Homo sapiens) (P11836 whole entry): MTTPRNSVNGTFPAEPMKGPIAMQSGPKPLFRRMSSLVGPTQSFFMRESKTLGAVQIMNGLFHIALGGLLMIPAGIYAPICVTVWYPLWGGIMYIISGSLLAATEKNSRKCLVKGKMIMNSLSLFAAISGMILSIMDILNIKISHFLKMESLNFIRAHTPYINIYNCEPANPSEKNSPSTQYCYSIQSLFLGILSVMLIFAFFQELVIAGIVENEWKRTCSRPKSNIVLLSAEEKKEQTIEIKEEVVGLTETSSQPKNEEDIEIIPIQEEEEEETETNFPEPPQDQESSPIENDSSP

Turning to rituximab, the equilibrium dissociation constant (Kd) in the data set with CD20 (Homo sapiens) is 8 nM.

As to daratumumab, the equilibrium dissociation constant (Kd) in the data set with CD38 (Homo sapiens) was 4.36 nM.
